{"source": "patent US20110059102A1", "about": "“Therapeutic Method Targeting Midkine” (NATIONAL UNIVERSITY CORPORATION NAGOYA UNIVERSITY, priority 2009, published 2011)", "molecules": {"B1": {"name": "MK: recombinant human midkine produced in Pichia pastoris; 13 kDa heparin-binding protein (protein, UniProt P21741 21-143, looked up)", "Midkine": "VAKKKDKVKKGGPGSECAEWAWGPCTPSSKDCGVGFREGTCGAQTQRIRCRVPCNWKKEFGADCKYKFENWGACDGGTGTKVRQGTLKKARYNAQCQETIRVTKPCTPKTKAKAKAKKGKGKD"}}, "key": {"[1]": {"details": "compared with mouse MK produced in L cells; cited from earlier work"}, "[2]": {"system": "cerebral ischemia reperfusion insult model", "details": "cited from earlier work"}, "[3]": {"system": "retinal nerve degeneration model", "details": "prior injection of midkine; cited from earlier work"}, "[4]": {"system": "Mdk-/- mice after 5/6 nephrectomy", "test": "rh-MK and -PTN treatment model (osmotic pump), blood pressure by tail-cuff", "assay_type": "in vivo", "details": "1.6 mg/ml, 100 μl by osmotic pump over 14 days", "procedure": "(§1) rh-MK and -PTN treatment model. In the pump study, MK protein in saline (1.6 mg/ml) (n=5), PTN in saline (1.6 mg/ml; n=5), or saline alone (n=5) was infused using an osmotic pump (ALZA Corp.) into Mdk^−/− mice after 5/6 nephrectomy. The pumps continuously infused a total of 100 μl over 14 days. The pumps were implanted under the dorsal skin the next day after 5/6 nephrectomy. Blood pressure was measured by the indirect tail-cuff technique at 0 and 2 weeks after 5/6 nephrectomy. Mice were sacrificed at 2 weeks after 5/6 nephrectomy, and blood and tissue samples were collected.\nBlood pressure monitoring. Blood pressure was measured in restrained, conscious mice by the indirect tail-cuff technique under unstressed conditions (BP-98A; Softron) at 0, 2, 4, 6, and 8 weeks after 5/6 nephrectomy (J. Lab. Clin. Med. 78:957-962). Before measurement, the mice were warmed with a heating pad for 5 minutes. A total of 7-10 readings were taken for each mouse, at 1- to 2-minute intervals."}, "ACE [5]": {"system": "ACE", "test": "rh-MK and -PTN treatment model, ACE expression in the lung by Western blotting", "assay_type": "in vivo", "details": "Mdk-/- mice after 5/6 nephrectomy, 1.6 mg/ml, 100 μl by osmotic pump over 14 days", "procedure": "as §1\nWestern blot analysis. Mouse kidney, lung, brain, heart, and liver tissues were snap-frozen in liquid nitrogen for protein isolation. Western blot analysis was performed as described previously (Br. J. Cancer. 75:354-359). The blots were subsequently incubated with goat anti-human MK antibody (dilution, 1:1,000), monoclonal anti-β-actin antibody (dilution, 1:1,000; Sigma-Aldrich), mouse anti-ACE monoclonal antibody (dilution, 1:1,000; Chemicon International, Millipore), or rabbit anti-phospho-PKC antibody (dilution, 1:1,000; Cell Signaling Technology), followed by incubation with peroxidase-conjugated goat IgG, mouse IgG, or rabbit IgG (dilution, 1:5,000; Jackson Immunoresearch Laboratories Inc.). […] The density of each band was measured using the public domain NIH Image program (http://rsb.info.nih.gov/nih-image/)."}, "PKC": {"system": "PKC", "test": "Phospho-PKC expression in HMVEC-L by Western blotting", "assay_type": "cell-based, human", "details": "exogenous MK 100 ng/ml plus heparin 20 μg/ml", "description": "Histology and immunohistochemistry. The removed kidneys and lungs were fixed in 10% buffered formalin, embedded in paraffin, and then cut into 4-10.1 μm sections. The sections were stained with H&E, PAS, and Masson's trichrome. Another tissue sample was embedded in OCT compound (Sakura Finetek) and frozen in liquid nitrogen for immunostaining. Sections were cut to a thickness of 3 μm with a cryostat and fixed in acetone. High-power fields were used to examine the sections for evidence of focal sclerosis (J. Hypertens. 13:1785-1790, J. Lab. Clin. Med. 115:165-173). Glomerular sclerosis was assessed by semiquantitative score (grades 0 to +4) using the method of Raij et al. (Kidney Int. 26:137-143): grade 0, no sclerosis of glomeruli; grade 1, sclerosis of up to 25% of glomerulus; grade 2, sclerosis of 25%-50% of glomerulus; grade 3, sclerosis of 50%-75% of glomerulus; grade 4, sclerosis of 75%-100% of glomerulus. At least 50 glomeruli were evaluated under ×400 magnification and results averaged for each kidney (Mdk^+/+: 2 weeks, n=5; 4 weeks, n=4; 8 weeks, n=4; Mdk^−/−: 2 weeks, n=4; 4 weeks, n=3; 8 weeks, n=3). Immunostaining for ACE and MK was performed on buffered formalin-fixed tissues. […] The lung and kidney section from each mouse was viewed under ×400 magnification, and then macrophages or neutrophils were counted from 10 fields and averaged. […]"}, "[6]": {"system": "acute myocardial infarction model", "details": "administration of midkine; cited from earlier work"}, "ACE [7]": {"system": "ACE", "test": "ACE expression in HMVEC-L by Western blotting", "assay_type": "cell-based, human", "details": "exogenous MK protein 100 ng/ml plus heparin 20 μg/ml", "description": "Histology and immunohistochemistry. The removed kidneys and lungs were fixed in 10% buffered formalin, embedded in paraffin, and then cut into 4-10.1 μm sections. The sections were stained with H&E, PAS, and Masson's trichrome. Another tissue sample was embedded in OCT compound (Sakura Finetek) and frozen in liquid nitrogen for immunostaining. Sections were cut to a thickness of 3 μm with a cryostat and fixed in acetone. High-power fields were used to examine the sections for evidence of focal sclerosis (J. Hypertens. 13:1785-1790, J. Lab. Clin. Med. 115:165-173). Glomerular sclerosis was assessed by semiquantitative score (grades 0 to +4) using the method of Raij et al. (Kidney Int. 26:137-143): grade 0, no sclerosis of glomeruli; grade 1, sclerosis of up to 25% of glomerulus; grade 2, sclerosis of 25%-50% of glomerulus; grade 3, sclerosis of 50%-75% of glomerulus; grade 4, sclerosis of 75%-100% of glomerulus. At least 50 glomeruli were evaluated under ×400 magnification and results averaged for each kidney (Mdk^+/+: 2 weeks, n=5; 4 weeks, n=4; 8 weeks, n=4; Mdk^−/−: 2 weeks, n=4; 4 weeks, n=3; 8 weeks, n=3). Immunostaining for ACE and MK was performed on buffered formalin-fixed tissues. Sections were deparaffinized, rehydrated, incubated in 3% hydrogen peroxide in methanol to block endogenous peroxidase, and washed in 10% normal goat serum (Dako) in PBS to block nonspecific binding. Subsequently, sections were incubated with mouse anti-ACE monoclonal antibody (dilution, 1:400; Chemicon International, Millipore) or anti-MK monoclonal antibody (dilution, 1:100) overnight at 4° C. as described previously (22), followed by a conjugate of polyclonal goat anti-mouse IgG antibody and HRP-labeled polymer (Histofine Simple Stain; Nichirei) for 1 hour at room temperature as a secondary antibody. The staining was visualized with 3-3′ diaminobenzidine (Nichirei) to produce a brown color. The sections were covered with 90% glycerol containing p-phenylenediamine and were examined by electron microscopy (H-7100; Hitachi). For double immunofluorescence staining of MK and thrombomodulin as a marker of the vascular endothelium, the cryosections of lungs were first incubated with chicken anti-human MK (dilution, 1:200) and then with rabbit anti-rat thrombomodulin (dilution, 1:1,000) (J. Immunol. 150:5633-5646), followed by incubation with FITC-labeled rabbit anti-chicken IgG (dilution, 1:160) and rhodamine-labeled goat anti-rabbit IgG (dilution, 1:320) as secondary antibodies. […] The lung and kidney section from each mouse was viewed under ×400 magnification, and then macrophages or neutrophils were counted from 10 fields and averaged. […]"}, "HMVEC-L": {"system": "HMVEC-L", "test": "Ang II concentration in HMVEC-L (conversion from Ang I to Ang II)", "assay_type": "cell-based, human", "details": "HMVEC-L treated 36 hours with MK 100 ng/ml plus heparin 20 μg/ml or heparin alone, then Ang I added", "procedure": "Ang II concentration in HMVEC-L. After reaching confluence, HMVEC-L were washed with PBS and cultured for 24 hours in essential basal medium containing 0.5% FBS. These cells were exposed to 100 ng/ml rh-MK plus 20 μg/ml heparin or 20 μg/ml heparin alone in essential basal medium containing 0.5% FBS for 36 hours. After stimulation, HMVEC-L were washed with PBS and exposed to 500 pM Ang I (Sigma-Aldrich) for 10 and 25 minutes. Supernatants were collected into chilled tubes, and then the Ang II concentration was measured as previously described (Hypertension. 39:129-134)."}}, "note": "Entries after “also recorded” stand apart in the source; their conditions may differ. Like-named read-outs stand apart in the source and are kept apart here.", "data": [{"molecule": "B1", "values": [{"measurement": "Neurotrophic activity", "setting": "[1]", "value": "comparable"}, {"measurement": "Loss of hippocampal neuronal cells", "setting": "[2]; post-insult therapeutic administration", "value": "ineffective"}, {"measurement": "Loss of hippocampal neuronal cells", "setting": "[2]; prior ventricular administration of midkine", "value": "able to remedy"}, {"measurement": "Neuronal cell loss", "setting": "[3]", "value": "reduced"}, {"measurement": "Hypertension (SBP)", "setting": "[4]", "value": "restore hypertension; also recorded: restored"}, {"measurement": "ACE expression in the lung", "setting": "ACE [5]", "value": "restored"}, {"measurement": "Phosphorylation levels of PKC", "setting": "PKC", "value": "increased"}, {"measurement": "Apoptotic loss of myocardial cells", "setting": "[6]", "value": "reduction"}, {"measurement": "ACE expression in HMVEC-L", "setting": "ACE [7]", "value": "significantly enhanced; also recorded: induced"}, {"measurement": "Conversion of Ang I to Ang II", "setting": "HMVEC-L", "value": "converted to Ang II in a time-dependent manner"}]}]}
